From the supplement of paper PMC10126150
± gives the standard deviation of the averaged measurements.

Tested on: ATP
Assay: switch fluorescence ratio, 500 uM ATP over buffer (Cy3 cluster intensity, sum of 5 cycles each) (fold (ratio)); higher = stronger signal-on switching upon ATP binding; sequences stand for … in TCGTCGGCAGCGTCAGATGTGTATAAGAGACAGTTTTTTTTTTTTTTTTTTTTTTTTT…TC
Details: aptamer strand: ATP DNA aptamer (quencher-CACCTGGGGGAGTATTGCGGAGGAAGG + anchor), 100 nM annealed; ATP concentration: 500 uM
How it was run: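 Exposure to 500 uM ATP lasted 15 min at 22 °C before imaging, and a selection-buffer image was taken beforehand, for Cy3-labelled switching-strand clusters on a modified Illumina MiSeq flow-cell annealed to 100 nM quencher-labelled ATP aptamer. Five buffer/ATP cycles were run with NaOH stripping and re-annealing between them. The fluorescence ratio per cluster is summed target-cycle over summed buffer-cycle Cy3 intensity, averaged per switch-domain sequence. Clusters outside 100-1000 RFU were excluded.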

TTGCAGACTT and TTGCAGGGGA are within error of each other in switch fluorescence ratio: 1.05 ± 0.072 for the first, 1.3 ± 0.38 for the second.

Going from TTGCAGGTGT to TTGCAGTGTT, the switch fluorescence ratio falls from 1.85 ± 0.47 to 1.06 ± 0.098.

TTGCATACGT and TTGCATTTGG are within error of each other in switch fluorescence ratio: 1.61 ± 0.76 for the first, 1.01 ± 0.088 for the second.

TTGCATTTGT and TTGCCAAATT are within error of each other in switch fluorescence ratio: 1 ± 0.03 for the first, 1.12 ± 0.13 for the second.

Going from TTGCCGCACG to TTGCCGGCTC, the switch fluorescence ratio falls from 1.15 ± 0.024 to 1.03 ± 0.029.

First: TTGCCTGCGG
Second: TTGCCTGTAT
The switch fluorescence ratio of the first is higher: 0.999 ± 0.0067 for the first, 0.9731 ± 0.0073 for the second.

TTGCGACACC and TTGCGCTACG are within error of each other in switch fluorescence ratio: 1.06 ± 0.042 for the first, 1.01 ± 0.011 for the second.

First: TTGCGCTCGT
Second: TTGCGGCCTT
The switch fluorescence ratio of the first is lower: 0.993 ± 0.011 for the first, 1.09 ± 0.081 for the second.

TTGCGGCGCT and TTGCGGCGGT are within error of each other in switch fluorescence ratio: 1.01 ± 0.043 for the first, 0.983 ± 0.033 for the second.

TTGCGGGTGA and TTGCGGTCGT are within error of each other in switch fluorescence ratio: 1.01 ± 0.059 for the first, 1.002 ± 0.0023 for the second.

TTGCGGTGGG and TTGCGTCATT are the same in switch fluorescence ratio: 1.03 ± 0.018 for the first, 1.03 ± 0.016 for the second.

TTGCGTGTGA and TTGCGTTAGG are within error of each other in switch fluorescence ratio: 1.01 ± 0.028 for the first, 1.04 ± 0.012 for the second.

TTGCGTTATC and TTGCGTTGCG are within error of each other in switch fluorescence ratio: 1.2 ± 0.27 for the first, 0.9685 ± 0.0036 for the second.

TTGCGTTGGC and TTGCTACACG are within error of each other in switch fluorescence ratio: 0.984 ± 0.043 for the first, 1.04 ± 0.02 for the second.

TTGCTACTCG and TTGCTATCTT are within error of each other in switch fluorescence ratio: 1.62 ± 0.73 for the first, 0.983 ± 0.052 for the second.

TTGCTATGGG and TTGCTATGTG are within error of each other in switch fluorescence ratio: 0.978 ± 0.017 for the first, 0.979 ± 0.015 for the second.

TTGCTCAAGC and TTGCTCGAAA are within error of each other in switch fluorescence ratio: 0.999 ± 0.068 for the first, 0.987 ± 0.075 for the second.

TTGCTGATTC and TTGCTGGGGG are within error of each other in switch fluorescence ratio: 0.9811 ± 0.0067 for the first, 1.01 ± 0.059 for the second.

TTGCTGTTAC and TTGCTGTTAG are within error of each other in switch fluorescence ratio: 1.15 ± 0.15 for the first, 0.995 ± 0.0074 for the second.

TTGCTGTTTC and TTGCTTAAGG are within error of each other in switch fluorescence ratio: 1 ± 0.067 for the first, 0.997 ± 0.026 for the second.

TTGCTTCAGC and TTGCTTGAGC are within error of each other in switch fluorescence ratio: 0.994 ± 0.097 for the first, 1.006 ± 0.0092 for the second.

Going from TTGCTTGGAA to TTGCTTGGGA, the switch fluorescence ratio rises from 0.992 ± 0.026 to 1.04 ± 0.014.

TTGCTTTGTG and TTGCTTTTGC are the same in switch fluorescence ratio: 1 ± 0.042 for the first, 1 ± 0.023 for the second.

TTGCTTTTGT and TTGCTTTTTT are within error of each other in switch fluorescence ratio: 1.02 ± 0.025 for the first, 0.992 ± 0.013 for the second.

TTGGAAAATG and TTGGAAGGGT are within error of each other in switch fluorescence ratio: 1.02 ± 0.037 for the first, 1.01 ± 0.031 for the second.

TTGGAATAAA and TTGGAATCGA are within error of each other in switch fluorescence ratio: 1.02 ± 0.015 for the first, 1.06 ± 0.035 for the second.

TTGGACCGTG and TTGGACGGTA are within error of each other in switch fluorescence ratio: 0.973 ± 0.069 for the first, 1.06 ± 0.1 for the second.

TTGGACTCCG and TTGGACTCTT are within error of each other in switch fluorescence ratio: 1.14 ± 0.15 for the first, 0.977 ± 0.038 for the second.

TTGGAGAGGG and TTGGAGATAT are within error of each other in switch fluorescence ratio: 1.06 ± 0.058 for the first, 1.07 ± 0.13 for the second.

TTGGAGCACG and TTGGAGGACA are within error of each other in switch fluorescence ratio: 1.03 ± 0.049 for the first, 1.06 ± 0.019 for the second.

TTGGAGGCGT and TTGGAGGGGC are within error of each other in switch fluorescence ratio: 0.9814 ± 0.0057 for the first, 1 ± 0.071 for the second.

First: TTGGAGGTCG
Second: TTGGAGTCTG
The switch fluorescence ratio of the first is higher: 1.03 ± 0.019 for the first, 0.994 ± 0.015 for the second.

TTGGAGTTTG and TTGGATAGCG are within error of each other in switch fluorescence ratio: 1.02 ± 0.051 for the first, 0.982 ± 0.017 for the second.

TTGGATATTT and TTGGATCGCA are within error of each other in switch fluorescence ratio: 1 ± 0.015 for the first, 0.985 ± 0.017 for the second.

TTGGATGAAG and TTGGATGACA are within error of each other in switch fluorescence ratio: 0.982 ± 0.022 for the first, 1.02 ± 0.031 for the second.

Going from TTGGATGTGA to TTGGATTAGG, the switch fluorescence ratio rises from 0.9622 ± 0.0052 to 1.01 ± 0.024.

TTGGATTGTT and TTGGATTTAT are within error of each other in switch fluorescence ratio: 1.04 ± 0.025 for the first, 1.011 ± 0.0093 for the second.

Compared with TTGGCACCCG, TTGGCCGCAT is higher in switch fluorescence ratio: 1.04 ± 0.034 for the first, 1.24 ± 0.09 for the second.

In the case of TTGGCCGTAG, the switch fluorescence ratio is reported as 1.01 ± 0.028.
